From paper PMC10536470, “Reducing the virulence of Pseudomonas aeruginosa by using multiple quorum-quenching enzymes” (Journal of Industrial Microbiology & Biotechnology, 2023)

Tested on: CCCCCCCCCC(=O)CC(=O)N[C@H]1CCOC1=O
Experiment: purified protein
Type: biochemical, Chryseobacterium sp. StRB126
Settings: bicine 2.5 mM pH 8.0, 50 mM NaCl, 0.2 mM ZnCl2, 0.5% DMSO, 30 °C, substrate 0.2-2 mM

AidC (Chryseobacterium sp. StRB126)
Km: 560 ± 10 µM | kcat: 250 ± 18 s⁻¹
